T1: soluble human FcRH5 protein fragment (human) (UniProt Q96RD9)
T1 sequence: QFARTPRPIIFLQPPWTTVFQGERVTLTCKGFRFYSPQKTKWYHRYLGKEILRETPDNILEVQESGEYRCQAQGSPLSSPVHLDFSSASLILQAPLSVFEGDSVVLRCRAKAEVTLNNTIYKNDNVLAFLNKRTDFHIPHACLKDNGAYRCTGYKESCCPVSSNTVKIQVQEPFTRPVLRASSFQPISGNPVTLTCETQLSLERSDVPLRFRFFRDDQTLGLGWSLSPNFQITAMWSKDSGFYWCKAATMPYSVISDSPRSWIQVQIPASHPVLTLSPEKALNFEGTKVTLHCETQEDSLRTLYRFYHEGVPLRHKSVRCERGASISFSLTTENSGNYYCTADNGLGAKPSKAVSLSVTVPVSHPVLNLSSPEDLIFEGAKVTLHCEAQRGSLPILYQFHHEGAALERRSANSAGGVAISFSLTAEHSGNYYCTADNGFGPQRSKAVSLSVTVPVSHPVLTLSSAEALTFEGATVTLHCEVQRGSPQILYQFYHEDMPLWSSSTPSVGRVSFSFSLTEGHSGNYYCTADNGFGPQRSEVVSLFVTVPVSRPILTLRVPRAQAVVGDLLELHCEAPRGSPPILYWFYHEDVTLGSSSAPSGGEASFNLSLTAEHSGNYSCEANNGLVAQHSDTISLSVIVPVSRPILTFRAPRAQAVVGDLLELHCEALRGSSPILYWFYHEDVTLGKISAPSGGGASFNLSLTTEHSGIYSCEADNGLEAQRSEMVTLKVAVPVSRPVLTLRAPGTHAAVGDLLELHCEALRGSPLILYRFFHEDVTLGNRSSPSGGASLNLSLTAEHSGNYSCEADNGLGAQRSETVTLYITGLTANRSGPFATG

T2: soluble cynomolgus FcRH5 protein fragment (cynomolgus monkey)
T2 sequence: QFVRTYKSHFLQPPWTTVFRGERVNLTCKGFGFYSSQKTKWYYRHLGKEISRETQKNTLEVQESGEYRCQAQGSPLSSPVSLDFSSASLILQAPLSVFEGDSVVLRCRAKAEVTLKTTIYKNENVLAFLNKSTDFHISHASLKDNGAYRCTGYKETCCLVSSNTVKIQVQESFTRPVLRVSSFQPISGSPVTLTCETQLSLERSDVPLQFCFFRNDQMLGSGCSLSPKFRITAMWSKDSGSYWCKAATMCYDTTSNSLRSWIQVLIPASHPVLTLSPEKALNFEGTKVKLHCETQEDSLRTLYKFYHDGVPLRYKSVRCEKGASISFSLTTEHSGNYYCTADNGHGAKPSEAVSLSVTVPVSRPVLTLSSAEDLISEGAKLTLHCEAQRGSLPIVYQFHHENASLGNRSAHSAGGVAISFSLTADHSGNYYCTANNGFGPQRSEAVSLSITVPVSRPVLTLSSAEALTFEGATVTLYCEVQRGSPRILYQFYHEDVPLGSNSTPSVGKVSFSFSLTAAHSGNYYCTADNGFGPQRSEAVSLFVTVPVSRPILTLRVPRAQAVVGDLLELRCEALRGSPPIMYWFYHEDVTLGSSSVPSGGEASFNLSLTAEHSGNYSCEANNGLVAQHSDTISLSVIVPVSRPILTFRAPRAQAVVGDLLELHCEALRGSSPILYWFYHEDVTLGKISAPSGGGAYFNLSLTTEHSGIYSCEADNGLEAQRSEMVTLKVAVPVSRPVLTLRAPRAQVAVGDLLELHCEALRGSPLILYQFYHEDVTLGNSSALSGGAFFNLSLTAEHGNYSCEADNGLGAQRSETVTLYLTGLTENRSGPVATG


Columns and labels:
[1] = target: T1, soluble human FcRH5 protein fragment (human); assay: SPR screening, human IgG capture
[2] = target: T2, soluble cynomolgus FcRH5 protein fragment (cynomolgus monkey); assay: BIACORE, hIgG capture, 1:1 model, monovalent
[3] = target: T2, soluble cynomolgus FcRH5 protein fragment (cynomolgus monkey); assay: BIACORE
[4] = target: T2, soluble cynomolgus FcRH5 protein fragment (cynomolgus monkey); assay: SPR, human IgG capture, 1:1 model

Row | Kd [1] [nM] | Binder | other results
1 | 530 | hu1G7.v1 heavy chain W52Y + light chain of hu1G7.v1.6 (antibody, part only; not given: hu1G7.v1.6 light chain, V domains shown, part only) VH: EVQLVESGPGLVKPSETLSLTCTVSGFSLTRFGVHWVRQPPGKGLEWLGVIYRGGSTDYNAAFMSRLTISKDNSKNQVSLKLSSVTAADTAVYYCSNHYYGSSDYALDNWGQGTLVTVSS | –
2 | 250 | hu1G7.v1 heavy chain W52L + light chain of hu1G7.v1.6 (antibody, part only; not given: hu1G7.v1.6 light chain, V domains shown, part only) VH: EVQLVESGPGLVKPSETLSLTCTVSGFSLTRFGVHWVRQPPGKGLEWLGVILRGGSTDYNAAFMSRLTISKDNSKNQVSLKLSSVTAADTAVYYCSNHYYGSSDYALDNWGQGTLVTVSS | –

Continued, binder first:

Row | Binder | Kd [1] [nM] | other results
3 | hu1G7.v1 heavy chain W52F + light chain of hu1G7.v1.6 (antibody, part only; not given: hu1G7.v1.6 light chain, V domains shown, part only) VH: EVQLVESGPGLVKPSETLSLTCTVSGFSLTRFGVHWVRQPPGKGLEWLGVIFRGGSTDYNAAFMSRLTISKDNSKNQVSLKLSSVTAADTAVYYCSNHYYGSSDYALDNWGQGTLVTVSS | 81 | –
4 | hu1G7.v1 heavy chain W52H + light chain of hu1G7.v1.6 (antibody, part only; not given: hu1G7.v1.6 light chain, V domains shown, part only) VH: EVQLVESGPGLVKPSETLSLTCTVSGFSLTRFGVHWVRQPPGKGLEWLGVIHRGGSTDYNAAFMSRLTISKDNSKNQVSLKLSSVTAADTAVYYCSNHYYGSSDYALDNWGQGTLVTVSS | 110 | –
5 | hu1G7.v1 heavy chain M64I + light chain of hu1G7.v1.6 (antibody, part only; not given: hu1G7.v1.6 light chain, V domains shown, part only) VH: EVQLVESGPGLVKPSETLSLTCTVSGFSLTRFGVHWVRQPPGKGLEWLGVIWRGGSTDYNAAFISRLTISKDNSKNQVSLKLSSVTAADTAVYYCSNHYYGSSDYALDNWGQGTLVTVSS | 2.7 | –
6 | hu1G7.v1 heavy chain M64V + light chain of hu1G7.v1.6 (antibody, part only; not given: hu1G7.v1.6 light chain, V domains shown, part only) VH: EVQLVESGPGLVKPSETLSLTCTVSGFSLTRFGVHWVRQPPGKGLEWLGVIWRGGSTDYNAAFVSRLTISKDNSKNQVSLKLSSVTAADTAVYYCSNHYYGSSDYALDNWGQGTLVTVSS | 2.7 | –
7 | hu1G7.v1 heavy chain M64F + light chain of hu1G7.v1.6 (antibody, part only; not given: hu1G7.v1.6 light chain, V domains shown, part only) VH: EVQLVESGPGLVKPSETLSLTCTVSGFSLTRFGVHWVRQPPGKGLEWLGVIWRGGSTDYNAAFFSRLTISKDNSKNQVSLKLSSVTAADTAVYYCSNHYYGSSDYALDNWGQGTLVTVSS | 2.6 | –
8 | hu1G7.v85/38E4.v1 TDB (bispecific antibody, V domains shown) VH 1: EVQLVESGPGLVKPSETLSLTCTVSGFSLTRFGVHWVRQPPGKGLEWLGVIWRGGSTDYNAAFVSRLTISKDNSKNQVSLKLSSVTAADTAVYYCSNHYYGSSDYALDNWGQGTLVTVSS VL 1: DIQMTQSPSSLSASVGDRVTITCKASQDVRNLVVWFQQKPGKAPKLLIYSGSYRYSGVPSRFSGSGSGTDFTLTISSLQPEDFATYYCQQHYSPPYTFGQGTKVEIK VH 2: EVQLVQSGAEVKKPGASVKVSCKASGFTFTSYYIHWVRQAPGQGLEWIGWIYPENDNTKYNEKFKDRVTITADTSTSTAYLELSSLRSEDTAVYYCARDGYSRYYFDYWGQGTLVTVSS VL 2: DIVMTQSPDSLAVSLGERATINCKSSQSLLNSRTRKNYLAWYQQKPGQSPKLLIYWTSTRKSGVPDRFSGSGSGTDFTLTISSLQAEDVAVYYCKQSFILRTFGQGTKVEIK | – | Kd [2]: 6.76 nM; Kd [3]: 7.8 nM; Kd [4]: 6.8 nM; koff [4]: 0.0008 s⁻¹; kon [4]: 100000 M⁻¹ s⁻¹
9 | hu1G7.v93/38E4.v1 TDB (bispecific antibody, V domains shown) VH 1: EVQLVESGPGLVKPSETLSLTCTVSGFSTTRFGVHWVRQPPGKGLEWLGVIWRGGSTDYNAAFVSRLTISKDNSKNQVSLKLSSVTAADTAVYYCSNHYYGSPDYALDNWGQGTLVTVSS VL 1: DIQMTQSPSSLSASVGDRVTITCKASQDVSNLVVWFQQKPGKAPKLLIYSGSYRYSGVPSRFSGSGSGTDFTLTISSLQPEDFATYYCQQHYSPPYTFGQGTKVEIK VH 2: EVQLVQSGAEVKKPGASVKVSCKASGFTFTSYYIHWVRQAPGQGLEWIGWIYPENDNTKYNEKFKDRVTITADTSTSTAYLELSSLRSEDTAVYYCARDGYSRYYFDYWGQGTLVTVSS VL 2: DIVMTQSPDSLAVSLGERATINCKSSQSLLNSRTRKNYLAWYQQKPGQSPKLLIYWTSTRKSGVPDRFSGSGSGTDFTLTISSLQAEDVAVYYCKQSFILRTFGQGTKVEIK | – | Kd [3]: 8.1 nM

From patent US20160368985A1
